# Source: patent US20190338048A1
# Read-outs that look alike come from different tables or passages of the source.
# Assays:
# [1] = target: Recombinant human IL-17A (human) (UniProt Q16552); test: SPR
# [2] = target: Recombinant human IL-17A (human) (UniProt Q16552); test: SPR, IL-17A immobilised, purified Fab injected
# [3] = target: CAT-2200 Fab heavy chain S188K; test: LCCA
# [4] = target: CAT-2200 heavy chain Fab construct (H1) S186R; test: LCCA, SPR tag read-out
# [5] = target: CAT-2200 heavy chain Fab construct (H1) Q39K; test: LCCA, SPR tag read-out
# [6] = target: CR8071 lambda light chain L1 with S176K_Y178K; test: SMCA System C: four chains co-expressed, protein A, LC-MS
# [7] = target: CR8071 lambda light chain L1 with S176K_Y178K; test: as above; remark: listed apart in the source
# [8] = target: Pertuzumab kappa light chain P44F_S131R_V133G_S176R; test: LCCA, SPR tag read-out
# [9] = target: Pertuzumab kappa light chain P44F_V133G_S176D_T180E; test: LCCA, SPR tag read-out
# [10] = target: Pertuzumab kappa light chain P44F_V133G_S176D_T180E; test: LCCA, SPR tag read-out; remark: listed apart in the source
# [11] = target: CAT-2200 lambda light chain E124Q_T131R; test: LCCA, SPR tag read-out
# [12] = target: Pertuzumab kappa light chain P44F_Q124R_T178R; test: LCCA, SPR tag read-out
# [13] = target: Pertuzumab kappa light chain S131R_V133G_S176R_T178A; test: LCCA, SPR
# [14] = target: CAT-2200 lambda light chain K129T_V133D; test: LCCA, SPR
# [15] = target: Pertuzumab kappa light chain S131K_V133G_S176R_T178A; test: LCCA, SPR
# [16] = target: CAT-2200 lambda light chain K129T_V133D; test: LCCA, SPR; remark: listed apart in the source
# [17] = target: Pertuzumab kappa light chain S131R_V133S_L135K; test: LCCA, SPR
# [18] = target: Pertuzumab kappa light chain Q124E_V133G_S176D_T178D; test: LCCA
# [19] = target: CAT-2200 lambda light chain S176K_Y178R (L1), N-terminal FLAG tag; test: LCCA, SPR of light chain tags
# [20] = target: CAT-2200 lambda light chain S176K_Y178L (L1), N-terminal FLAG tag; test: LCCA, SPR of light chain tags
# [21] = target: Pertuzumab kappa light chain V133G_S176D_T180E (L2), N-terminal HA tag; test: LCCA, SPR of light chain tags
# [22] = target: Pertuzumab kappa light chain V133G_S176D_T180E (L2), N-terminal HA tag; test: LCCA, SPR of light chain tags; remark: listed apart in the source
# [23] = target: Pertuzumab kappa light chain V133G_S176D_T180E (L2), N-terminal HA tag; test: LCCA, SPR of light chain tags; remark: listed apart in the source
# [24] = target: Pertuzumab kappa light chain V133G_S176D_T180E (L2), N-terminal HA tag; test: LCCA, SPR of light chain tags; remark: listed apart in the source
# [25] = target: Pertuzumab kappa light chain V133G_S176D_T178E; test: LCCA, SPR
# [26] = target: Pertuzumab kappa light chain V133G_S176D_T180E; test: LCCA, SPR
# [27] = target: Pertuzumab kappa light chain V133G_L135W_S176D_T180E; test: LCCA, SPR tag read-out
# [28] = target: CAT-2200 lambda light chain E124Q_T131R; test: LCCA, SPR
# [29] = target: Pertuzumab kappa light chain V133G_S176D_T178E; test: LCCA, SPR; remark: listed apart in the source
# [30] = target: Pertuzumab kappa light chain V133G_S176D_T180E; test: LCCA, SPR; remark: listed apart in the source
# [31] = target: Pertuzumab kappa light chain V133G_L135W_S176D_T180E; test: LCCA, SPR tag read-out; remark: listed apart in the source
# [32] = target: CAT-2200 lambda light chain E124Q_T131K; test: LCCA, SPR
# [33] = target: CAT-2200 lambda light chain S176K_Y178K (L1), N-terminal FLAG tag; test: LCCA, SPR of light chain tags
# [34] = target: Pertuzumab kappa light chain S121K_Q124R_T178R; test: LCCA
# [35] = target: Pertuzumab kappa light chain S121K_Q124R_Q160K_T178R; test: LCCA
# [36] = target: CAT-2200 lambda light chain S122D_K129T_S180E; test: LCCA
# [37] = target: Pertuzumab kappa light chain Q124R_Q160R_S176A_T178R; test: LCCA, SPR
# [38] = target: Pertuzumab kappa light chain Q124R_S176A_T178R; test: LCCA, SPR
# [39] = target: Pertuzumab kappa light chain Q124K_L135A_T178R; test: LCCA
# [40] = target: Pertuzumab kappa light chain Q124R_L135A_Q160K_T178R; test: LCCA
# [41] = target: Pertuzumab kappa light chain S121K_Q124E_V133D; test: LCCA, SPR tag read-out
# [42] = target: CAT-2200 lambda light chain T116F_S176F (L1), N-terminal FLAG tag; test: LCCA, SPR of light chain tags
# [43] = target: Pertuzumab kappa light chain V133A (L2), N-terminal HA tag; test: LCCA, SPR of light chain tags
# [44] = target: Pertuzumab light chain (kappa) V133G_S176D_T178E, HA-tagged; test: LCCA
# [45] = target: Pertuzumab light chain (kappa) V133G_S176D_T180E, HA-tagged; test: LCCA
# [46] = target: Pertuzumab light chain (kappa) V133G_S176D_T178E, HA-tagged; test: LCCA; remark: listed apart in the source
# [47] = target: Pertuzumab light chain (kappa) V133G_S176D_T180E, HA-tagged; test: LCCA; remark: listed apart in the source
# [48] = target: SGN-CD19a kappa light chain L2 with Q124E_V133D; test: SMCA System B: four chains co-expressed, protein A, LC-MS
# [49] = target: SGN-CD19a kappa light chain L2 with Q124E_V133D; test: SMCA System C: four chains co-expressed, protein A, LC-MS
# Chain of Recombinant human IL-17A (human) (Q16552 20-155 limits assumed): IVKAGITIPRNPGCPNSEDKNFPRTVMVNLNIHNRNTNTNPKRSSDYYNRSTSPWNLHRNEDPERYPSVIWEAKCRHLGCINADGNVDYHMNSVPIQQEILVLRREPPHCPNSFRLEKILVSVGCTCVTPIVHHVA
substance,measurement,setting,value
"CAT-2200 Fab, H1 Q179K / L1 K129T_S180E",Change in KD of H1L1 Fab vs wild type (log(KD) units),[1],-0.056
same,Kd,[2],0.24 nM
"CAT-2200 Fab, H1 S186R / L1 K129T_S180E",Change in KD of H1L1 Fab vs wild type (log(KD) units),[1],-0.088
same,Kd,[2],0.26 nM
CAT-2200 lambda light chain K129T_S176E_Y178E,H1L1:H1L2 median scalar value (ln(H1L1:H1L2)),[3],1.8
CAT-2200 lambda light chain S176E_Y178E,H1L1:H1L2 median scalar value (ln(H1L1:H1L2)),[3],1.01
"CAT-2200 lambda light chain construct (L1) K129T_S180E, FLAG-tagged",H1L1:H1L2 normalized median scalar value ln(r1/f1),[4],1.94
"CAT-2200 lambda light chain construct (L1) Q38D, FLAG-tagged",H1L1:H1L2 normalized median scalar value ln(r1/f1),[5],0.91
"CAT-2200 lambda light chain construct (L1) Q38E, FLAG-tagged",H1L1:H1L2 normalized median scalar value ln(r1/f1),[5],0.61
CR8071 heavy chain H1 with K145T_V177D_S188D,% H1L1 Pairing,[6],41.5%
same,Change in % H1L1 Pairing with respect to wild type,[6],-6.9%
same,% H1L1 Pairing,[7],62.6%
same,Change in % H1L1 Pairing with respect to wild type,[7],14.2%
Pertuzumab Fab heavy chain L45P_L124E_K145T_Q179E,H2L2:H2L1 median scalar value,[8],3.9 ln(ratio)
same,H2L2:H2L1 normalized median ratio,[8],97%
Pertuzumab Fab heavy chain L45P_L124R_Q179K,H2L2:H2L1 median scalar value,[9],1.84 ln(ratio)
same,H2L2:H2L1 normalized median ratio,[9],86%
same,H2L2:H2L1 median scalar value,[10],1.45 ln(ratio)
same,H2L2:H2L1 normalized median ratio,[10],81%
same,H2L2:H2L1 normalized median ratio,[11],14%
Pertuzumab Fab heavy chain L45P_L143E_K145T_Q179E,H2L2:H2L1 median scalar value,[12],3.81 ln(ratio)
same,H2L2:H2L1 normalized median ratio,[12],98%
Pertuzumab Fab heavy chain L124E_K145T_Q179E_S186I_S188W,H2L2:H2L1 normalized median ratio,[13],88%
same,H2L2:H2L1 normalized median scalar value ln(r1/f1),[13],2.04
same,H2L2:H2L1 normalized median ratio,[14],16%
same,H2L2:H2L1 normalized median ratio,[15],84%
same,H2L2:H2L1 normalized median scalar value ln(r1/f1),[15],1.69
same,H2L2:H2L1 normalized median ratio,[16],12%
Pertuzumab Fab heavy chain L124E_K145T_Q179E_S188W,H2L2:H2L1 normalized median ratio,[13],96%
same,H2L2:H2L1 normalized median scalar value ln(r1/f1),[13],3.12
same,H2L2:H2L1 normalized median ratio,[14],9%
same,H2L2:H2L1 normalized median ratio,[15],91%
same,H2L2:H2L1 normalized median scalar value ln(r1/f1),[15],2.31
same,H2L2:H2L1 normalized median ratio,[16],4%
Pertuzumab Fab heavy chain L124E_K145T_S186E,H2L2:H2L1 normalized median ratio,[17],80%
same,H2L2:H2L1 normalized median scalar value ln(r1/f1),[17],1.38
same,H2L2:H2L1 normalized median ratio,[14],20%
Pertuzumab Fab heavy chain L124K_S188K,H2L2:H2L1 median scalar value,[18],-0.29 ln
"Pertuzumab Fab heavy chain L124R_Q179K (H2), ABD2-His6 tagged",H2L2:H2L1 normalized median ratio,[19],31%
same,H2L2:H2L1 normalized median ratio,[20],34%
same,H2L2:H2L1 normalized median scalar value ln(r1/f1),[21],0.63
same,H2L2:H2L1 normalized median scalar value ln(r1/f1),[22],0.67
same,H2L2:H2L1 normalized median scalar value ln(r1/f1),[23],0.79
same,H2L2:H2L1 normalized median scalar value ln(r1/f1),[24],0.75
Pertuzumab Fab heavy chain L124R_S186K,H2L2:H2L1 normalized median scalar value ln(r1/f1),[25],1.22
same,H2L2:H2L1 normalized median scalar value ln(r1/f1),[26],1.32
same,H2L2:H2L1 median scalar value,[27],0 ln(ratio)
same,H2L2:H2L1 normalized median ratio,[28],21%
same,H2L2:H2L1 normalized median scalar value ln(r1/f1),[29],1.12
same,H2L2:H2L1 normalized median scalar value ln(r1/f1),[30],1.47
same,H2L2:H2L1 median scalar value,[31],0 ln(ratio)
same,H2L2:H2L1 normalized median ratio,[32],25%
Pertuzumab Fab heavy chain L124R_S186R,H2L2:H2L1 normalized median scalar value ln(r1/f1),[25],1.18
same,H2L2:H2L1 normalized median scalar value ln(r1/f1),[26],1.47
same,H2L2:H2L1 normalized median scalar value ln(r1/f1),[29],1.04
same,H2L2:H2L1 normalized median scalar value ln(r1/f1),[30],1.5
same,H2L2:H2L1 median scalar value,[31],0.23 ln(ratio)
same,H2L2:H2L1 normalized median ratio,[32],26%
"Pertuzumab Fab heavy chain L124R_S186R (H2), ABD2-His6 tagged",H2L2:H2L1 normalized median ratio,[20],27%
same,H2L2:H2L1 normalized median ratio,[33],26%
same,H2L2:H2L1 normalized median scalar value ln(r1/f1),[21],1.21
same,H2L2:H2L1 normalized median scalar value ln(r1/f1),[22],0.98
same,H2L2:H2L1 normalized median scalar value ln(r1/f1),[23],1.17
same,H2L2:H2L1 normalized median scalar value ln(r1/f1),[24],1.06
Pertuzumab Fab heavy chain L124R_S188K,H2L2:H2L1 median scalar value,[18],0.54 ln
Pertuzumab Fab heavy chain L143E_K145T_K228D,H2L2:H2L1 median scalar value,[34],2.19 ln
same,H2L2:H2L1 normalized median ratio,[34],72%
same,H2L2:H2L1 median scalar value,[35],-0.24 ln
same,H2L2:H2L1 normalized median ratio,[36],28%
Pertuzumab Fab heavy chain L143E_K145T_Q179E_S186I_S188W,H2L2:H2L1 normalized median scalar value ln(r1/f1),[37],1.42
same,H2L2:H2L1 normalized median scalar value ln(r1/f1),[38],2.8
Pertuzumab Fab heavy chain L143E_K145T_Q179E_S188F_V190F,H2L2:H2L1 median scalar value,[39],-0.51 ln
Pertuzumab Fab heavy chain L143E_K145T_Q179E_S188W,H2L2:H2L1 normalized median ratio,[37],85%
same,H2L2:H2L1 normalized median scalar value ln(r1/f1),[37],1.71
same,H2L2:H2L1 normalized median ratio,[14],15%
same,H2L2:H2L1 normalized median scalar value ln(r1/f1),[38],2.83
Pertuzumab Fab heavy chain L143E_K145T_V190F,H2L2:H2L1 median scalar value,[40],-0.23 ln
Pertuzumab Fab heavy chain L143I_S186K_K228D,H2L2:H2L1 median scalar value,[41],-0.18 ln(ratio)
Pertuzumab Fab heavy chain S186K_K228D,H2L2:H2L1 median scalar value,[41],-0.5 ln(ratio)
"Pertuzumab Fab heavy chain S188F (H2), ABD2-His6 tagged",H2L2:H2L1 normalized median ratio,[42],28%
same,H2L2:H2L1 normalized median ratio,[43],72%
same,H2L2:H2L1 normalized median scalar value ln(r1/f1),[43],0.93
Pertuzumab heavy chain Fab construct L124R_S186K,H2L2:H2L1 normalized median scalar value ln(r1/f1),[44],1.12
same,H2L2:H2L1 normalized median scalar value ln(r1/f1),[45],1.47
same,H2L2:H2L1 normalized median scalar value ln(r1/f1),[46],1.22
same,H2L2:H2L1 normalized median scalar value ln(r1/f1),[47],1.32
SGN-CD19a heavy chain H2 with L143K,% H2L2 Pairing,[48],94.3%
same,Change in % H2L2 Pairing with respect to wild type,[48],40.1%
same,% H2L2 Pairing,[49],99.6%
same,Change in % H2L2 Pairing with respect to wild type,[49],20%
